From patent publication JP2010500380A

Biological target: 白血球IFN (leukocyte IFN, Sigma I-2396)
Assay: cell-based or functional assay

percent block of bioactivity, RG bioassay, 600 pg leukocyte IFN: > 50%
B1: ACO-1 (antibody, V domains shown)
VH: QVQLQQPGAELVKPGASVKLSCKASGYTFTNYWMHWVKQRPGQGLEWIGEINPSHGRTIYNENFKSKATLTVDKSSITAFMQLSSLTSEDSAVYFCARGGLGPAWFAYWGQGTLVTVSA
VL: QIVLTQSPAIMSASPGEKVTLTCSAGSSVDSSYLYWYQQKPGSSPKLWIYSTSNLASGVPARFSGSGSGTSYSLTISSMEAEDAASYFCHQWSSYPFTFGSGTKLEIKR
